Our source for the observed folding rate constant of PepQ by recovery of enzymatic activity, bound to SR1 (300 nM) and refolded with GroES (600 nM) and ATP (2 mM) and early escape compared to SR1 values is paper PMC5497066.

Where a chain is given by its changes, count along the chain named.

In assay [1] the target is single-ring mutant of GroEL, SR1 (E. coli), P0A6F5.
The target of assay [2] is single-ring truncation mutant, SRΔ526 (E. coli). Nature of the assay: protease protection (encapsulation); denatured PepQ-24F (100 nM) bound to wild-type or Δ526 GroEL-GroES-ADP bullets (200 nM) or full-length or Δ526 single-ring GroEL (300 nM) with GroES (600 nM); single turnover with ATP (2 mM), quenched after 10 s; unencapsulated PepQ digested with Proteinase K; SDS-PAGE, fluorescein scan.

B1: wild type E. coli PepQ, P21165 1-443 (enzyme)
chain: MESLASLYKNHIATLQERTRDALARFKLDALLIHSGELFNVFLDDHPYPFKVNPQFKAWVPVTQVPNCWLLVDGVNKPKLWFYLPVDYWHNVEPLPTSFWTEDVEVIALPKADGIGSLLPAARGNIGYIGPVPERALQLGIEASNINPKGVIDYLHYYRSFKTEYELACMREAQKMAVNGHRAAEEAFRSGMSEFDINIAYLTATGHRDTDVPYSNIVALNEHAAVLHYTKLDHQAPEEMRSFLLDAGAEYNGYAADLTRTWSAKSDNDYAQLVKDVNDEQLALIATMKAGVSYVDYHIQFHQRIAKLLRKHQIITDMSEEAMVENDLTGPFMPHGIGHPLGLQVHDVAGFMQDDSGTHLAAPAKYPYLRCTRILQPGMVLTIEPGIYFIESLLAPWREGQFSKHFNWQKIEALKPFGGIRIEDNVVIHENNVENMTRDLKLA
Take B1: in assay [1], the observed folding rate constant of PepQ by recovery of enzymatic activity, bound to SR1 (300 nM) and refolded with GroES (600 nM) and ATP (2 mM) worked out at 0.62 min⁻¹.

B2: PepQ-24F (enzyme)
chain: B1 chain with A24C
modifications: fluorescein (5-iodoacetamidofluorescein) on the cysteine at position 24
B2: in assay [2], the early escape compared to SR1 was under 10%.
